Results on two molecules are retold here after publication PMC6171237, “UBN1/2 of HIRA complex is responsible for recognition and deposition of H3.3 at cis-regulatory elements of genes in mouse ES cells” (BMC Biology, 2018).

This assay has as its target T1, (H3.3-H4)2 tetramers (UniProt P84243 1-136; P62805 1-103).
T1 construct: Histone H3.3; Histone H4; also called H3.3-H4 tetramer; copies: 2 + 2
Description: pull-down; GST fusion proteins immobilized on Glutathione Sepharose 4 Fast Flow, histone tetramers added in 20 mM HEPES-HCl pH 7.9, 500 mM NaCl, 1 mM EDTA, 5 mM 2-mercaptoethanol, 0.1% Nonidet P-40, overnight at 4 °C; Coomassie staining. The following applies: both partners purified.

B1: GST-UBN1 (1–213) (domain or fragment)
chain: MSEPHRVQFTSLPGSLNPAFLKKSRKEEAGAGEQHQDCEPAAAAVRITLTLFEPDHKRCPEFFYPELVKNIRGKVKGLQPGDKKKDLSDPFNDEEKERHKVEALARKFEEKYGGKKRRKDRIQDLIDMGYGYDESDSFIDNSEAYDELVPASLTTKYGGFYINSGTLQFRQASESEDDFIKEKKKKSPKKRKLKEGGEKIKKKKKDDTYDKEK
notes: source: E. coli, purified by GST tag
On to B1, for which the binding result is given as “binds”.

B2: GST-UBN2 (109–291) (domain or fragment)
chain: PRESASRAEQPPRPPRETVRLELVLKDPTDESCVEFSYPELLLCGEQRKKLIHTEDPFNDEHQERQEVEMLAKKFEMKYGGKPRKHRKDRLQDLIDIGFGYDETDPFIDNSEAYDELVPASLTTKYGGFYINTGTLQFRQASDTEEDDITDNQKHKPPKVPKIKEDDIEMKKRKRKEEGEKEK
notes: UBN2, human, residues 109-291, contains the HRD domain; also called UBN2 (aa109-291); GST-UBN2-(aa109-291); source: E. coli, purified by GST tag
Regarding B2, the binding result is listed as “binds”.
